For one molecule, [GCAP]1/2: GCAP1 concentration producing half-maximal stimulation of guanylyl cyclase activity (HEK293 membranes, 10 mM MgCl2, 2 mM EGTA) results are on record in article PMC12155690.

For experiment [1], the target named is human RetGC1 p.(Arg624Gln) (human) (UniProt Q02846).
Experiment [2] addresses T1, human retinal guanylyl/guanylate cyclase 1 (RetGC1), wild type (human) (UniProt Q02846).
T1 sequence: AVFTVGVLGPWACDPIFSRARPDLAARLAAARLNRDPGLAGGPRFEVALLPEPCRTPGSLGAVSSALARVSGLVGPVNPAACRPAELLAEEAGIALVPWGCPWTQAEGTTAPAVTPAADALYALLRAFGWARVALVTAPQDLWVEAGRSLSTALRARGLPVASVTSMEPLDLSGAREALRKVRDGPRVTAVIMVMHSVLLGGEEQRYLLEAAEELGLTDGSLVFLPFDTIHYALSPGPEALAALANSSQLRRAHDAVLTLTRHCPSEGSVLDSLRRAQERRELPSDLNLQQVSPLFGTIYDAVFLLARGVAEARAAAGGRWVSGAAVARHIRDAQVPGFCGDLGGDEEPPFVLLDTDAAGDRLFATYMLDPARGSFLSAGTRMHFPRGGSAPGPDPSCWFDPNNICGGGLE

Experiment [3] has as its target human RetGC1 p.(Leu587Val) (human) (UniProt Q02846).
Experiment [4] deals with human RetGC1 p.(Tyr555Ser) (human) (UniProt Q02846).

B1: Human GCAP1 (Ser6) (natural protein)
chain: MGNVMSGKSVEELSSTECHQWYKKFMTECPSGQLTLYEFRQFFGLKNLSPSASQYVEQMFETFDFNKDGYIDFMEYVAALSLVLKGKVEQKLRWYFKLYDVDGNGCIDRDELLTIIQAIRAINPCSDTTMTAEEFTDTVFSKIDVNGDGELSLEEFIEGVQKDQMLLDTLTRSLDLTRIVRRLQNGEQDEEGADEAAEAAG
In the case of B1, the [GCAP]1/2: GCAP1 concentration producing half-maximal stimulation of guanylyl cyclase activity (HEK293 membranes, 10 mM MgCl2, 2 mM EGTA) in experiment [1] was determined as 4.1 µM; in experiment [2], 0.98 µM; in experiment [3], 2.4 µM; in experiment [4], 4.4 µM.
